The results in this text go back to patent US20100184658A1 (published 2010).

Targets include PRKCA (PKC alpha) (UniProt P17252 1-672, limits assumed); SRMS (Srm) (UniProt Q9H3Y6 1-488, limits assumed); CAMK2A (CaMKII alpha) (UniProt Q9UQM7 1-478, limits assumed); ABL1 E255K (UniProt P00519 1-1130, limits assumed); PRKCQ (PKC theta) (UniProt Q04759 1-706, limits assumed); SRPK2 (UniProt P78362 1-688, limits assumed); RPS6KA6 (RSK4) (UniProt Q9UK32 1-745, limits assumed); DAPK3 (ZIPK) (UniProt O43293 1-454, limits assumed); ABL1 G250E (UniProt P00519 1-1130, limits assumed).

What all share (test): cell-based or functional assay
In assay [1] the target is PRKCB1 (PKC beta I) Protein kinase C, beta 1 (UniProt P05771 1-671).
A further assay concerns the target T1, MERTK (cMER) (UniProt Q12866 578-872, limits assumed).
T1 sequence (looked up): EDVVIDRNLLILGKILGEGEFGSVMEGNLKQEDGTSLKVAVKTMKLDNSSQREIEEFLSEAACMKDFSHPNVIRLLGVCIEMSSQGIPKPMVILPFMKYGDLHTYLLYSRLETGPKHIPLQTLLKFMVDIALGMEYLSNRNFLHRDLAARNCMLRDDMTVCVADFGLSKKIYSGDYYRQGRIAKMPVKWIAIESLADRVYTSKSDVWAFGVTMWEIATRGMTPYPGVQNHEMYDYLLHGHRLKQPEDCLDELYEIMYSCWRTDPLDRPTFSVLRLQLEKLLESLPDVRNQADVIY

A further assay has as its target T2, BRSK1 (SAD1) (UniProt Q8TDC3 1-778, limits assumed).
T2 sequence (looked up): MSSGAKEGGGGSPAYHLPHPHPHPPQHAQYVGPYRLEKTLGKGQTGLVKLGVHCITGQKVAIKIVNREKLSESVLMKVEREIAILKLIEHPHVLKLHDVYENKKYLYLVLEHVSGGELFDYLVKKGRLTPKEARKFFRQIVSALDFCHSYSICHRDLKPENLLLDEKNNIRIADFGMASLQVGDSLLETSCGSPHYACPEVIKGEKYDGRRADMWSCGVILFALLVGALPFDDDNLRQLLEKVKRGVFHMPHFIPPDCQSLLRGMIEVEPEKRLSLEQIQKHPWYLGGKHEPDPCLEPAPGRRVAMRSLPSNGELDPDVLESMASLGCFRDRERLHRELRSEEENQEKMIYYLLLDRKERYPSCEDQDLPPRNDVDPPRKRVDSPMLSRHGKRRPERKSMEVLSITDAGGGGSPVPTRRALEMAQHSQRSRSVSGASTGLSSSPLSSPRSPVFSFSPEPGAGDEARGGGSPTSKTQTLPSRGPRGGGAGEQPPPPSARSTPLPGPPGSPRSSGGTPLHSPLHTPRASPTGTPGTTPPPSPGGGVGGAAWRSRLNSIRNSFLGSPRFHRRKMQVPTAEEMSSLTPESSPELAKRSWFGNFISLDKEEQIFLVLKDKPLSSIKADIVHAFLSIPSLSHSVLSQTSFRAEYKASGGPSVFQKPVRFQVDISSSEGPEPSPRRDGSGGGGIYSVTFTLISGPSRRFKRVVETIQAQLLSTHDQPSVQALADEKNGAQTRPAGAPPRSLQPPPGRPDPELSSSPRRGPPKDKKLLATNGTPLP

Assay [2] addresses MAPK8 (JNK1) Mitogen-activated protein kinase 8 (UniProt P45983 1-427, limits assumed).
Assay [3] addresses T3, PHKG2 Phosphorylase kinase, gamma 2 (UniProt P15735 1-406, limits assumed).
T3 sequence (looked up): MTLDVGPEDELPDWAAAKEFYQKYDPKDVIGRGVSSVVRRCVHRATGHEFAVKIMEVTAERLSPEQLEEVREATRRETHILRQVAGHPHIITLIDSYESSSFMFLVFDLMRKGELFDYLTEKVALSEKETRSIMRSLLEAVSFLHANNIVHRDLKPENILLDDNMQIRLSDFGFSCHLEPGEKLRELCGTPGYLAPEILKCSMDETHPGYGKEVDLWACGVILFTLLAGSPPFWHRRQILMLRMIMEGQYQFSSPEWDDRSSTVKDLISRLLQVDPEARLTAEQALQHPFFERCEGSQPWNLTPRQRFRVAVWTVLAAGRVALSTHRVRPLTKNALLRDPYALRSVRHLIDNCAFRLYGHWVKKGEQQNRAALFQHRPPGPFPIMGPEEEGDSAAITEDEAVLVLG

The target in assay [4] is RPS6KA4 (MSK2) Ribosomal protein S6 kinase, 90 kDa, polypeptide 4 (UniProt O75676 1-772, limits assumed).
RPS6KA4 (MSK2) Ribosomal protein S6 kinase, 90 kDa, polypeptide 4, sequence (O75676 whole entry): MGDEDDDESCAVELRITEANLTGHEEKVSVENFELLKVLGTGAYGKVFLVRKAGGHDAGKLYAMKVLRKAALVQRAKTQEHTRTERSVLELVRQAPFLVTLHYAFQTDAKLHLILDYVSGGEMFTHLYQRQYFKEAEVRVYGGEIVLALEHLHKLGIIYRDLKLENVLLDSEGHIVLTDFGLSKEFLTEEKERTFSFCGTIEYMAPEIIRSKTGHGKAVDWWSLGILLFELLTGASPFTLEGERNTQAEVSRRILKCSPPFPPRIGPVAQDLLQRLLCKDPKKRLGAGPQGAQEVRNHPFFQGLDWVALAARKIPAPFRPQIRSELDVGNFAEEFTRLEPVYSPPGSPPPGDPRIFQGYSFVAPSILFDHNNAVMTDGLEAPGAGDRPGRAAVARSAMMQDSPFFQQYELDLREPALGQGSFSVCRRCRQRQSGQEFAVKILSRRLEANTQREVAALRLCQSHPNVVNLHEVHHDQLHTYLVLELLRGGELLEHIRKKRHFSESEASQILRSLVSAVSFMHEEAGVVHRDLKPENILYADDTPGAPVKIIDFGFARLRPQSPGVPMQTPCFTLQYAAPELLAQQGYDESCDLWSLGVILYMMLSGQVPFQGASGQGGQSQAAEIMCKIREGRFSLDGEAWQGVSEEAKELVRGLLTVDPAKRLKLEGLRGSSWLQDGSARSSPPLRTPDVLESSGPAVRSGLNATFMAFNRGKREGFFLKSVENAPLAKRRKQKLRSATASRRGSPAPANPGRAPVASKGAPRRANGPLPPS

DAPK3 (ZIPK), sequence (O43293 whole entry): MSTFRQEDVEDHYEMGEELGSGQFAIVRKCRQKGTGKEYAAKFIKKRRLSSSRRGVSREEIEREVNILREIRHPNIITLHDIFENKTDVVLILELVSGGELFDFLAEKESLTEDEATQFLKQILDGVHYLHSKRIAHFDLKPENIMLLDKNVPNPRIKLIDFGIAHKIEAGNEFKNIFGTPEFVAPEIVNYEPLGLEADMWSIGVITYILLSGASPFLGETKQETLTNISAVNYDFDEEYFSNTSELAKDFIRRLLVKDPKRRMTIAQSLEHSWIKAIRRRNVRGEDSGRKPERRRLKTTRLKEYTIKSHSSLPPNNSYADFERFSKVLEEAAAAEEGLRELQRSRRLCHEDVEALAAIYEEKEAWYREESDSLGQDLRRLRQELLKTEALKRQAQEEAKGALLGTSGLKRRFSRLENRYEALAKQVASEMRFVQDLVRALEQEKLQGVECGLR
RPS6KA6 (RSK4), sequence (Q9UK32 whole entry): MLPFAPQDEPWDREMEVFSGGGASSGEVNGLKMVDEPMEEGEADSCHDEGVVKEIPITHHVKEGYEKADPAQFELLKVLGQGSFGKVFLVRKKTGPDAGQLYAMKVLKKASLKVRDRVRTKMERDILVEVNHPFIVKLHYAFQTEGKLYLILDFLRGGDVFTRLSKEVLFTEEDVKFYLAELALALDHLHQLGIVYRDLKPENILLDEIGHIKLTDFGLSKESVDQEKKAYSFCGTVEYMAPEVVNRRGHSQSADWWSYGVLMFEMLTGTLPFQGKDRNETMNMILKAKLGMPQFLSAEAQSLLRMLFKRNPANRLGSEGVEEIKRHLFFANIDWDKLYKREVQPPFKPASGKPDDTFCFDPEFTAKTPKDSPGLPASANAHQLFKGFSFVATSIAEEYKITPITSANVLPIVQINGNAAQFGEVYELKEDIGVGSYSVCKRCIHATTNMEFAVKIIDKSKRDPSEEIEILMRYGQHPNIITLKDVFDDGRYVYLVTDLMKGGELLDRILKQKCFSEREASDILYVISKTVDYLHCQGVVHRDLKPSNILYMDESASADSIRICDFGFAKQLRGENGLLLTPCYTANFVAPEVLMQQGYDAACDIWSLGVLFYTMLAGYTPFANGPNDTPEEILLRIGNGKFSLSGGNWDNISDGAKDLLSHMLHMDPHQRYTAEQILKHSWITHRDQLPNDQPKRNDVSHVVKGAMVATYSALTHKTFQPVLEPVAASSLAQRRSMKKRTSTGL
SRMS (Srm), sequence (Q9H3Y6 whole entry): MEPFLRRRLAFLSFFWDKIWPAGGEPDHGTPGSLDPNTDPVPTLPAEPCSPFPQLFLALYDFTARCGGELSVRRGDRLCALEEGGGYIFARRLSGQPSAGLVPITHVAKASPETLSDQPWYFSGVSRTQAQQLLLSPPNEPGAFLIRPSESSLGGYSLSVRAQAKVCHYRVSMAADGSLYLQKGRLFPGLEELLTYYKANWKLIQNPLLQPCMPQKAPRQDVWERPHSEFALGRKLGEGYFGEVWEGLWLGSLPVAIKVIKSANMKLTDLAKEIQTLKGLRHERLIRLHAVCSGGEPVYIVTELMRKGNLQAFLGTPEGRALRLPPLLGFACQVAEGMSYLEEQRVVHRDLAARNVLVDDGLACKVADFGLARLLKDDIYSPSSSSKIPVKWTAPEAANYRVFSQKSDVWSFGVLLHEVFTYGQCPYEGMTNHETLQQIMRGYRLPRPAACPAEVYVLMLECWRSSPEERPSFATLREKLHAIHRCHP
ABL1 G250E, sequence (P00519 whole entry G250E): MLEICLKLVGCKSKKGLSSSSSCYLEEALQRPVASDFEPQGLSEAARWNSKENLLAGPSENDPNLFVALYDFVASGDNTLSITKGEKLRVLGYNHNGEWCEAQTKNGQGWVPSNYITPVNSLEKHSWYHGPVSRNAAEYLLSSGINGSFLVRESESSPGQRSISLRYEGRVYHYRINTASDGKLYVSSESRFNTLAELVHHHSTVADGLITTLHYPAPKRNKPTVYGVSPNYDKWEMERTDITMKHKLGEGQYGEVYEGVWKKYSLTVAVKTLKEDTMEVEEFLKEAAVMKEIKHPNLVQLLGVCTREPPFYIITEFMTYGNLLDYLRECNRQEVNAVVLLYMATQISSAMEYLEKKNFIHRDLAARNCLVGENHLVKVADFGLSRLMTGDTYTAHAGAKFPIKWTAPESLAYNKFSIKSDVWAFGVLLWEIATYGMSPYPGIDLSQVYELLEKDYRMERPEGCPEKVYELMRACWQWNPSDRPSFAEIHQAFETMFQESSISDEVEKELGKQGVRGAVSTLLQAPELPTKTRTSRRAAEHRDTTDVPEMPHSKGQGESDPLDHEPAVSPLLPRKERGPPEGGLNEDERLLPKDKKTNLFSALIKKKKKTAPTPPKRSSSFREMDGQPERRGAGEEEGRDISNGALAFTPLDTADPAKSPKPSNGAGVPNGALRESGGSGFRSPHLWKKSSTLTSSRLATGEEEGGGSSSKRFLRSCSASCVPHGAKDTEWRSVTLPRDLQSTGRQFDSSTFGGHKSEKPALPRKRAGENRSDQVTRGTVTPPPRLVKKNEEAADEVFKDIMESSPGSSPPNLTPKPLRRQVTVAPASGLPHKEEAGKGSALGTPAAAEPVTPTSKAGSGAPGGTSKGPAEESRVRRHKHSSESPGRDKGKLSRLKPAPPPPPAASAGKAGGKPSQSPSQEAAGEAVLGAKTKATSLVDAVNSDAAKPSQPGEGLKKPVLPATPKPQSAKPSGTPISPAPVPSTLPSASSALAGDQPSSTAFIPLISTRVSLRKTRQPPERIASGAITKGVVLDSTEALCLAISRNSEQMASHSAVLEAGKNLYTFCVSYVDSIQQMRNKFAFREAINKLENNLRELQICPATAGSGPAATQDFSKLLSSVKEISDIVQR
PRKCB1 (PKC beta I) Protein kinase C, beta 1, sequence (P05771 whole entry): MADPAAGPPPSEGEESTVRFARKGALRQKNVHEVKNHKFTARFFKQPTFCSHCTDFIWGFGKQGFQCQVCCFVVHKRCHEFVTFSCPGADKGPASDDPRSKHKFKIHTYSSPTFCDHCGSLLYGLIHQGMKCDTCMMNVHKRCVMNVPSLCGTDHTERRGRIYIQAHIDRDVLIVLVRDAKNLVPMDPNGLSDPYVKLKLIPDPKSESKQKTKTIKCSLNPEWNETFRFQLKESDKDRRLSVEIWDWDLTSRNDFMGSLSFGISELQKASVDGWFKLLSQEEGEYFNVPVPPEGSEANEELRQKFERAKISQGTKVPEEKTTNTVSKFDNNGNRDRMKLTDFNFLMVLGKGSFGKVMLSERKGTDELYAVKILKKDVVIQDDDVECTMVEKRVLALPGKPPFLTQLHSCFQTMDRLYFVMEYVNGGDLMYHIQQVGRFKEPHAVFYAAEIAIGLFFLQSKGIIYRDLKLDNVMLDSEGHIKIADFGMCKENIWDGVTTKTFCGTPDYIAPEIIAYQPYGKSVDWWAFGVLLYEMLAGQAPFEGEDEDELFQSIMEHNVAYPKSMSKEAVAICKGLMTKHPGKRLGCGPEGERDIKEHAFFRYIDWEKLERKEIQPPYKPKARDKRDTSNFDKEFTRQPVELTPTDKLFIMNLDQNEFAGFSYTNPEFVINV
SRPK2, sequence (P78362 whole entry): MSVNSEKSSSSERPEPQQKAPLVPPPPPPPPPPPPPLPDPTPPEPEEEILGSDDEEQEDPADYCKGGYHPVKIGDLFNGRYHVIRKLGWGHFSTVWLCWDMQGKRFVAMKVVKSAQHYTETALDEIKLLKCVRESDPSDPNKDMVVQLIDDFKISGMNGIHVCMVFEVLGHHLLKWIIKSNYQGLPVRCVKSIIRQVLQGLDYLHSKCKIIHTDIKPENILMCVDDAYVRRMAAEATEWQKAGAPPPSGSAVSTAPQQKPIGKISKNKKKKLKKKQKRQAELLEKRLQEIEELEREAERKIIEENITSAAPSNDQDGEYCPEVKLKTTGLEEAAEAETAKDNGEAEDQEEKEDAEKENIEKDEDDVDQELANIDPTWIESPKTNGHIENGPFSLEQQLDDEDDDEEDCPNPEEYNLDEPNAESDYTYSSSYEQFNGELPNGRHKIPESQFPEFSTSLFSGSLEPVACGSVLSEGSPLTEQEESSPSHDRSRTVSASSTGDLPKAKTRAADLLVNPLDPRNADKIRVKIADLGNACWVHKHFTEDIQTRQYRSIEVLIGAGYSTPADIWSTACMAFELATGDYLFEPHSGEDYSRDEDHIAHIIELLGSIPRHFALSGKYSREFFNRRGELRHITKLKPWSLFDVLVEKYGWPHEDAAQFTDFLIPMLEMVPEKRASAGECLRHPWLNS
ABL1 E255K, sequence (P00519 whole entry E255K): as the sequence (P00519 whole entry G250E) above, with E250G, E255K counted along it

For the molecule SGRPPMIVWFNRPFLIAVSHTHGQTILFMAKVINPVGA [D3 peptide], the “% Inhibition mean” value in the assay with PRKCA (PKC alpha) was 45.1%; in the assay with SRMS (Srm) it was 46.5%; in [1] it was 88%; in the assay with MERTK (cMER) it was 79.5%; with CAMK2A (CaMKII alpha), 82.6%; with BRSK1 (SAD1), 83.5%. In addition, the “% Inhibition mean” value in the assay with ABL1 E255K came to 65.6%; in [2] it was 89%; with PRKCQ (PKC theta), 86.3%; in assay [3], 87%; with SRPK2, 79.2%; in assay [4] it was 96.8%. Besides, the “% Inhibition mean” value is 87.6% in the assay with RPS6KA6 (RSK4), 62% with DAPK3 (ZIPK) and 50.7% with ABL1 G250E.
